According to paper PMC2871463 (The Journal of Biological Chemistry, 2010):

T1: matrix metalloproteinase-2 (MMP-2), recombinant human (human, UniProt P08253 30-660)
T1 sequence (looked up): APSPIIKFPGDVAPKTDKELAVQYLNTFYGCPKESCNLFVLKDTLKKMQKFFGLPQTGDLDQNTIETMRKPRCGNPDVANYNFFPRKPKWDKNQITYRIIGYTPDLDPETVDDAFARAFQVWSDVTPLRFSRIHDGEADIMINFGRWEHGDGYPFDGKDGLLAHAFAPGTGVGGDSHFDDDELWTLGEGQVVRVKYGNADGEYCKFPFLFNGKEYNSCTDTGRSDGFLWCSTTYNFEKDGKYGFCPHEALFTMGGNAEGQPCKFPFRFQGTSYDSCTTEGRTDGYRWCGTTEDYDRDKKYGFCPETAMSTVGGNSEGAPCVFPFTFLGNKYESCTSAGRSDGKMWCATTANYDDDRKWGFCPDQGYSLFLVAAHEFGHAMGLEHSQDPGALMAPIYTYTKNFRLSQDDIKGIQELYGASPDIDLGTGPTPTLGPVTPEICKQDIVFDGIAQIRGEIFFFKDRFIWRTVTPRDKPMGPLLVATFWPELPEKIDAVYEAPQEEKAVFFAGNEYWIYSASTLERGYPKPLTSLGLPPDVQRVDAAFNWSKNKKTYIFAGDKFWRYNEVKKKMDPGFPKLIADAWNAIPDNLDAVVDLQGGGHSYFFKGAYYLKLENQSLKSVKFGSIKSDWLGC

T2: bone morphogenetic protein-1 (BMP-1), recombinant human (human, UniProt P13497-2 121-730)
T2 sequence (looked up): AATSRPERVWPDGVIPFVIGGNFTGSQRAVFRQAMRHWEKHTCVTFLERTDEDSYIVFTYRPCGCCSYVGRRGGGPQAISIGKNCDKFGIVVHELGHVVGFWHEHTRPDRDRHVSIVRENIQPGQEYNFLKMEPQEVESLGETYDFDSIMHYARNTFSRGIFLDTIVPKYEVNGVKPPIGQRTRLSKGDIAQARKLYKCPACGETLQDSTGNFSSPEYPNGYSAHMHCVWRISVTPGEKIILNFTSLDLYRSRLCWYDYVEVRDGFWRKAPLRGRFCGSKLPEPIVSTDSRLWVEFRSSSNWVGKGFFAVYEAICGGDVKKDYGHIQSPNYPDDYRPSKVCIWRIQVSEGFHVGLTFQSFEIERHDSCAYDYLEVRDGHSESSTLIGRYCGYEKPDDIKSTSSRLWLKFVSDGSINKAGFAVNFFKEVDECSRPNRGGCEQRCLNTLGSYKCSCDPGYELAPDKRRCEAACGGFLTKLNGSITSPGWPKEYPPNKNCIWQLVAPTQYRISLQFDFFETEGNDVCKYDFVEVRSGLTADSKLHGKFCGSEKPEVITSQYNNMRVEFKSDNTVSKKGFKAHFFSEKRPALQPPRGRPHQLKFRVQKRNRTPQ

B1: NTRshort (NTRs), short form of the netrin-like (NTR) domain of human PCPE-1 starting at Cys318 (domain or fragment, UniProt Q15113 318-449, looked up)
chain: CPKQCRRTGTLQSNFCASSLVVTATVKSMVREPGEGLAVTVSLIGAYKTGGLDLPSPPTGASLKFYVPCKQCPPMKKGVSYLLMGQVEENRGPVLPPESFVVLHRPNQDQILTNLSKRKCPSQPVRAAASQD
B2: procollagen C-proteinase enhancer-1 (PCPE-1), full-length, recombinant human (natural protein, UniProt Q15113 26-449, looked up)
chain: QTPNYTRPVFLCGGDVKGESGYVASEGFPNLYPPNKECIWTITVPEGQTVSLSFRVFDLELHPACRYDALEVFAGSGTSGQRLGRFCGTFRPAPLVAPGNQVTLRMTTDEGTGGRGFLLWYSGRATSGTEHQFCGGRLEKAQGTLTTPNWPESDYPPGISCSWHIIAPPDQVIALTFEKFDLEPDTYCRYDSVSVFNGAVSDDSRRLGKFCGDAVPGSISSEGNELLVQFVSDLSVTADGFSASYKTLPRGTAKEGQGPGPKRGTEPKVKLPPKSQPPEKTEESPSAPDAPTCPKQCRRTGTLQSNFCASSLVVTATVKSMVREPGEGLAVTVSLIGAYKTGGLDLPSPPTGASLKFYVPCKQCPPMKKGVSYLLMGQVEENRGPVLPPESFVVLHRPNQDQILTNLSKRKCPSQPVRAAASQD

Assays:
[1] = biological target: T1, matrix metalloproteinase-2 (MMP-2), …; experiment: SPR
[2] = biological target: T2, bone morphogenetic protein-1 (BMP-1), …; experiment: SPR

Row | Binder | Kd [1] [nM] | KD of site 1 (two binding sites model) [2] [nM] | KD of site 2 (two binding sites model) [2] [nM]
1 | B1 | ≥ 1000 |  | 
2 | B2 |  | 129 ± 19 | 5200 ± 500
